This test addresses glucose-regulated protein 78 (GRP78) (Mesocricetus auratus (endogenous in BHK-21)) (UniProt P07823).
Chain of UniProt P07823 (P07823 19-654): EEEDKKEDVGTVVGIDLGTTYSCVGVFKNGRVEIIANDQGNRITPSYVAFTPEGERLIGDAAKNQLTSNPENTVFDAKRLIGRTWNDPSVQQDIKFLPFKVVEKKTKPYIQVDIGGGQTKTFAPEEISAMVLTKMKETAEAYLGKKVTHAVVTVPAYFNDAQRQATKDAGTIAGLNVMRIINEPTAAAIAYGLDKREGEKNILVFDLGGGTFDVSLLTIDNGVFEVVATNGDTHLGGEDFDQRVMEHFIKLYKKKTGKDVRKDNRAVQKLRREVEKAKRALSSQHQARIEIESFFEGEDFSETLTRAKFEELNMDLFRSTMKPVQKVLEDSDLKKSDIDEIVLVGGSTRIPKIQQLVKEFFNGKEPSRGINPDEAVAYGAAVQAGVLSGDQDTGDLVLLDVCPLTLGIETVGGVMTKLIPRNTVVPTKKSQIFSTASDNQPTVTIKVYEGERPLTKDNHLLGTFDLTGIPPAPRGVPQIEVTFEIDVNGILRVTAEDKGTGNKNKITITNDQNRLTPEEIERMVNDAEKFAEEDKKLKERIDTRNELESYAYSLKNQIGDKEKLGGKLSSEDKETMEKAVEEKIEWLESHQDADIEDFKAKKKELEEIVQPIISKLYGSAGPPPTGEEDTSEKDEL

For the substance “Tembusu virus (TMUV) JS804, whole virus particle (complex)”, the TMUV RNA (qRT-PCR, 24 h) in BHK-21 cells pre-incubated with 100 μg/ml anti-GRP78 N-terminal antibody (ab32618) before infection, against rabbit IgG treated cells was determined as 50%.

These data come from article PMC5903163.
